Assay results taken from IntAct's records for PubMed 12386165.

B1: Solute carrier family 12 member 1 (Homo sapiens), Q13621 (parent)
chain: MSLNNSSNVFLDSVPSNTNRFQVSVINENHESSAAADDNTDPPHYEETSFGDEAQKRLRISFRPGNQECYDNFLQSGETAKTDASFHAYDSHTNTYYLQTFGHNTMDAVPKIEYYRNTGSISGPKVNRPSLLEIHEQLAKNVAVTPSSADRVANGDGIPGDEQAENKEDDQAGVVKFGWVKGVLVRCMLNIWGVMLFIRLSWIVGEAGIGLGVLIILLSTMVTSITGLSTSAIATNGFVRGGGAYYLISRSLGPEFGGSIGLIFAFANAVAVAMYVVGFAETVVDLLKESDSMMVDPTNDIRIIGSITVVILLGISVAGMEWEAKAQVILLVILLIAIANFFIGTVIPSNNEKKSRGFFNYQASIFAENFGPRFTKGEGFFSVFAIFFPAATGILAGANISGDLEDPQDAIPRGTMLAIFITTVAYLGVAICVGACVVRDATGNMNDTIISGMNCNGSAACGLGYDFSRCRHEPCQYGLMNNFQVMSMVSGFGPLITAGIFSATLSSALASLVSAPKVFQALCKDNIYKALQFFAKGYGKNNEPLRGYILTFLIAMAFILIAELNTIAPIISNFFLASYALINFSCFHASYAKSPGWRPAYGIYNMWVSLFGAVLCCAVMFVINWWAAVITYVIEFFLYVYVTCKKPDVNWGSSTQALSYVSALDNALELTTVEDHVKNFRPQCIVLTGGPMTRPALLDITHAFTKNSGLCICCEVFVGPRKLCVKEMNSGMAKKQAWLIKNKIKAFYAAVAADCFRDGVRSLLQASGLGRMKPNTLVIGYKKNWRKAPLTEIENYVGIIHDAFDFEIGVVIVRISQGFDISQVLQVQEELERLEQERLALEATIKDNECEEESGGIRGLFKKAGKLNITKTTPKKDGSINTSQSMHVGEFNQKLVEASTQFKKKQEKGTIDVWWLFDDGGLTLLIPYILTLRKKWKDCKLRIYVGGKINRIEEEKIVMASLLSKFRIKFADIHIIGDINIRPNKESWKVFEEMIEPYRLHESCKDLTTAEKLKRETPWKITDAELEAVKEKSYRQVRLNELLQEHSRAANLIVLSLPVARKGSISDLLYMAWLEILTKNLPPVLLVRGNHKNVLTFYS
B2: Solute carrier family 12 member 6 (Mus musculus), Q924N4-1 (parent)
chain: MHPPEATTKMSSVRFMVTPTKIDDIPGLSDTSPDLSSRSSSRVRFSSRESVPETSRSEPMSELSGATTSLATVALDPSSDRTSNPQDVTEDPSQNSITGEHSQLLDDGHKKARNAYLNNSNYEEGDEYFDKNLALFEEEMDTRPKVSSLLNRMANYTNLTQGAKEHEEAENITEGKKKPTKSPQMGTFMGVYLPCLQNIFGVILFLRLTWVVGTAGILQAFAIVLICCCCTMLTAISMSAIATNGVVPAGGSYFMISRALGPEFGGAVGLCFYLGTTFAAAMYILGAIEIFLVYIVPRAAIFRSDDALKESAAMLNNMRVYGTAFLVLMVLVVFIGVRYVNKFASLFLACVIVSILAIYAGAIKSSFAPPHFPVCMLGNRTLSSRHLDICSKTKEVDNMTVPSKLWGFFCNSSQFFNATCDEYFVHNNVISIQGIPGLASGIITENLWSNYLPKGEIIEKPSAKSSDVLGNLNHEYVLADITTSFTLLVGIFFPSVTGIMAGSNRSGDLKDAQKSIPIGTILAILTTSFVYLSNVVLFGACIEGVVLRDKFGDAVKGNLVVGTLSWPSPWVIVIGSFFSTCGAGLQSLTGAPRLLQAIAKDNIIPFLRVFGHSKANGEPTWALLLTAAIAELGILIASLDLVAPILSMFFLMCYLFVNLACALQTLLRTPNWRPRFRYYHWALSFMGMSICLALMFISSWYYAIVAMVIAGMIYKYIEYQGAEKEWGDGIRGLSLSAARFALLRLEEGPPHTKNWRPQLLVLLKLDEDLHVKHPRLLTFASQLKAGKGLTIVGSVIVGNFLENYGDALAAEQTIKHLMEAEKVKGFCQLVVAAKLKEGISHLIQSCGLGGMKHNTVVMGWPNGWRQSEDARAWKTFIGTVRVTTAAHLALLVAKNVSFFPSNVEQFSEGNIDVWWIVHDGGMLMLLPFLLKQHKVWRKCSIRIFTVAQLEDNSIQMKKDLATFLYHLRIEAEVEVVEMHDSDISAYTYERTLMMEQRSQMLRHMRLSKTERDREAQLVKDRNSMLRLTSIGSDEDEETETYQEKVHMTWTKDKYMASRGQKVKSMEGFQDLLNMRPDQSNVRRMHTAVKLNEVIVNKSHEAKLVLLNMPGPPRNPEGDENYMEFLEVLTEGLERVLLVRGGGSEVITIYS

Tests used:
[1] = variants of: B1; settings: with stk39_mouse Stk39, Q9Z1W9
[2] = variants of: B1; settings: with oxsr1_mouse Oxsr1, Q6P9R2
Target sequence in this assay (Q6P9R2 whole entry): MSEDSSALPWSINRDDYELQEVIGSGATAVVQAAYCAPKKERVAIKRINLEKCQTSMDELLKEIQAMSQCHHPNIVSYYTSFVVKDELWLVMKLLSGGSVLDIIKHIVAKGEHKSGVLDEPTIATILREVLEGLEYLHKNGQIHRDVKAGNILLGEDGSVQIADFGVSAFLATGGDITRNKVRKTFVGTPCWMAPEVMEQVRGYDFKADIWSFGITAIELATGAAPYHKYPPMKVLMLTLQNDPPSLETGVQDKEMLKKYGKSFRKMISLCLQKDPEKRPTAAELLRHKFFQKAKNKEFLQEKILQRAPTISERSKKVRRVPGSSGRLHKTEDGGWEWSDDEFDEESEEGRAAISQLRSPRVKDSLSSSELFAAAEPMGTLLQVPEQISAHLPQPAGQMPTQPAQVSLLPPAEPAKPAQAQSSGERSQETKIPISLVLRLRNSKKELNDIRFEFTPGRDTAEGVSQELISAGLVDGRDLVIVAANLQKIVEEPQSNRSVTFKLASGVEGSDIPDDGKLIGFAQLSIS

[3] = variants of: B2; settings: with oxsr1_mouse Oxsr1, Q6P9R2; remark: listed apart in the source
Target sequence in this assay (Q6P9R2 whole entry): as above

[4] = variants of: B2; settings: with stk39_mouse Stk39, Q9Z1W9; remark: listed apart in the source

Variant | effect of a mutation on the interaction [1] | effect of a mutation on the interaction [2] | effect of a mutation on the interaction [3] | effect of a mutation on the interaction [4]
V23A | decreasing interaction | decreasing interaction |  | 
N27A | decreasing interaction | decreasing interaction |  | 
S24A | decreasing interaction | decreasing interaction |  | 
E28A | decreasing interaction | decreasing interaction |  | 
F21A | decreasing interaction | decreasing interaction |  | 
R20A | decreasing interaction | decreasing interaction |  | 
V25A | decreasing interaction | decreasing interaction |  | 
V17A |  |  | decreasing interaction | decreasing interaction
P19A |  |  | decreasing interaction | decreasing interaction
F15A |  |  | decreasing interaction | decreasing interaction
R14A |  |  | decreasing interaction | decreasing interaction
K21A |  |  | decreasing interaction | decreasing interaction
I22A |  |  | decreasing interaction | decreasing interaction
